How the values were obtained:
HeLa Kyoto [1] = test: solubility in G1/S (NP-40 vs SDS abundance) (log2 ratio); higher = more soluble; settings: cell cycle stage: G1/S
HeLa Kyoto [2] = test: melting temperature (median over replicates), in situ; higher = more thermally stable
HeLa Kyoto [3] = test: solubility change mitosis vs G1/S (difference of NP-40 vs SDS log2 ratios) (log2 ratio difference); higher = more soluble in mitosis
HeLa Kyoto [4] = test: thermal stability score vs G1/S (z-score of summed log2 fold changes over temperatures); higher = more thermally stable than in G1/S
[5] = cell cycle stage: early G1 (4.5 h after nocodazole release)
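Wherever melting temperature (median over replicates), in situ is given: HeLa Kyoto cells synchronized by double thymidine or nocodazole block, proteins quantified by TMT10plex mass spectrometry, three independent biological replicates.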
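Wherever solubility change mitosis vs G1/S (difference of NP-40 vs SDS log2 ratios) is given: synchronized HeLa Kyoto cells (double thymidine block for G1/S, nocodazole release for mitosis), protein amounts in NP-40 versus SDS lysates quantified by mass spectrometry, three biological replicates.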
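Wherever solubility in G1/S (NP-40 vs SDS abundance) is given: HeLa Kyoto cells arrested at G1/S by double thymidine block, proteins quantified by TMT10plex mass spectrometry in mild NP-40 versus SDS extracts, three biological replicates.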
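Wherever thermal stability score vs G1/S (z-score of summed log2 fold changes over temperatures) is given: synchronized HeLa Kyoto cells, proteins quantified by TMT10plex mass spectrometry, three biological replicates, mitosis taken 0.5 h after nocodazole release, G1/S directly after double thymidine block.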

In the case of “MSQQGYVATPPYSQPQPGIGLSPPHYGHYGDPSHTASPTGMMKPAGPLGATATRGMLPPGPPPPGPHQFGQNGAHATGHPPQRFPGPPPVNNVASSHAPYQPSAQSSYPGPISTSSVTQLGSQLSAMQINSYGSGMAPPSQGPPGPLSATSLQTPPRPPQPSILQPGSQVLPPPPTTLNGPGASPLPLPMYRPDGLSGPPPPNAQYQPPPLPGQTLGAGYPPQQANSGPQMAGAQLSYPGGFPGGPAQMAGPPQPQKKLDPDSIPSPIQVIENDRASRGGQVYATNTRGQIPPLVTTDCMIQDQGNASPRFIRCTTYCFPCTSDMAKQAQIPLAAVIKPFATIPSNESPLYLVNHGESGPVRCNRCKAYMCPFMQFIEGGRRYQCGFCNCVNDVPPFYFQHLDHIGRRLDHYEKPELSLGSYEYVATLDYCRKSKPPNPPAFIFMIDVSYSNIKNGLVKLICEELKTMLEKIPKEEQEETSAIRVGFITYNKVLHFFNVKSNLAQPQMMVVTDVGEVFVPLLDGFLVNYQESQSVIHNLLDQIPDMFADSNENETVFAPVIQAGMEALKAADCPGKLFIFHSSLPTAEAPGKLKNRDDKKLVNTDKEKILFQPQTNVYDSLAKDCVAHGCSVTLFLFPSQYVDVASLGLVPQLTGGTLYKYNNFQMHLDRQQFLNDLRNDIEKKIGFDAIMRVRTSTGFRATDFFGGILMNNTTDVEMAAIDCDKAVTVEFKHDDKLSEDSGALIQCAVLYTTISGQRRLRIHNLGLNCSSQLADLYKSCETDALINFFAKSAFKAVLHQPLKVIREILVNQTAHMLACYRKNCASPSAASQLILPDSMKVLPVYMNCLLKNCVLLSRPEISTDERAYQRQLVMTMGVADSQLFFYPQLLPIHTLDVKSTMLPAAVRCSESRLSEEGIFLLANGLHMFLWLGVSSPPELIQGIFNVPSFAHINTDMTLLPEVGNPYSQQLRMIMGIIQQKRPYSMKLTIVKQREQPEMVFRQFLVEDKGLYGGSSYVDFLCCVHKEICQLLN [SEC24D]”, the “solubility in G1/S (log2)” value (HeLa Kyoto [1]) is reported as 0.11, the melting temperature (HeLa Kyoto [2]; cell cycle stage: G1/S) is reported as 50.8 °C and the melting temperature (HeLa Kyoto [2]; cell cycle stage: mitosis) is reported as 50.9 °C. For the same sequence, the “solubility change mitosis (log2)” value (HeLa Kyoto [3]) was -0.132, the thermal stability score (HeLa Kyoto [4]; [5]) was 0.419 and the thermal stability score (HeLa Kyoto [4]; cell cycle stage: mitosis) was 0.688.

In the case of “MSQSKGKKRNPGLKIPKEAFEQPQTSSTPPRDLDSKACISIGNQNFEVKADDLEPIMELGRGAYGVVEKMRHVPSGQIMAVKRIRATVNSQEQKRLLMDLDISMRTVDCPFTVTFYGALFREGDVWICMELMDTSLDKFYKQVIDKGQTIPEDILGKIAVSIVKALEHLHSKLSVIHRDVKPSNVLINALGQVKMCDFGISGYLVDSVAKTIDAGCKPYMAPERINPELNQKGYSVKSDIWSLGITMIELAILRFPYDSWGTPFQQLKQVVEEPSPQLPADKFSAEFVDFTSQCLKKNSKERPTYPELMQHPFFTLHESKGTDVASFVKLILGD [MAP2K6]”, the “solubility in G1/S (log2)” value (HeLa Kyoto [1]) is reported as 0.225, the melting temperature (HeLa Kyoto [2]; cell cycle stage: G1/S) is reported as 51.4 °C and the melting temperature (HeLa Kyoto [2]; cell cycle stage: mitosis) is reported as 52.5 °C. For the same sequence, the “solubility change mitosis (log2)” value (HeLa Kyoto [3]) was -0.158, the thermal stability score (HeLa Kyoto [4]; [5]) was 1.49 and the thermal stability score (HeLa Kyoto [4]; cell cycle stage: mitosis) was 0.537.

For “MSQVKSSYSYDAPSDFINFSSLDDEGDTQNIDSWFEEKANLENKLLGKNGTGGLFQGKTPLRKANLQQAIVTPLKPVDNTYYKEAEKENLVEQSIPSNACSSLEVEAAISRKTPAQPQRRSLRLSAQKDLEQKEKHHVKMKAKRCATPVIIDEILPSKKMKVSNNKKKPEEEGSAHQDTAEKNASSPEKAKGRHTVPCMPPAKQKFLKSTEEQELEKSMKMQQEVVEMRKKNEEFKKLALAGIGQPVKKSVSQVTKSVDFHFRTDERIKQHPKNQEEYKEVNFTSELRKHPSSPARVTKGCTIVKPFNLSQGKKRTFDETVSTYVPLAQQVEDFHKRTPNRYHLRSKKDDINLLPSKSSVTKICRDPQTPVLQTKHRARAVTCKSTAELEAEELEKLQQYKFKARELDPRILEGGPILPKKPPVKPPTEPIGFDLEIEKRIQERESKKKTEDEHFEFHSRPCPTKILEDVVGVPEKKVLPITVPKSPAFALKNRIRMPTKEDEEEDEPVVIKAQPVPHYGVPFKPQIPEARTVEICPFSFDSRDKERQLQKEKKIKELQKGEVPKFKALPLPHFDTINLPEKKVKNVTQIEPFCLETDRRGALKAQTWKHQLEEELRQQKEAACFKARPNTVISQEPFVPKKEKKSVAEGLSGSLVQEPFQLATEKRAKERQELEKRMAEVEAQKAQQLEEARLQEEEQKKEELARLRRELVHKANPIRKYQGLEIKSSDQPLTVPVSPKFSTRFHC [TPX2]”, the “solubility in G1/S (log2)” value (HeLa Kyoto [1]) was -0.167, the melting temperature (HeLa Kyoto [2]; cell cycle stage: G1/S) was 53.8 °C and the melting temperature (HeLa Kyoto [2]; cell cycle stage: mitosis) was 53.1 °C. The “solubility change mitosis (log2)” value (HeLa Kyoto [3]) was 0.425, the thermal stability score (HeLa Kyoto [4]; [5]) was -0.935 and the thermal stability score (HeLa Kyoto [4]; cell cycle stage: mitosis) was -2.05.

“MSQVLFHQLVPLQVKCKDCEERRVSIRMSIELQSVSNPVHRKDLVIRLTDDTDPFFLYNLVISEEDFQSLKFQQGLLVDFLAFPQKFIDLLQQCTQEHAKEIPRFLLQLVSPAAILDNSPAFLNVVETNPFKHLTHLSLKLLPGNDVEIKKFLAGCLKCSKEEKLSLMQSLDDATKQLDFTRKTLAEKKQELDKLRNEWASHTAALTNKHSQELTNEKEKALQAQVQYQQQHEQQKKDLEILHQQNIHQLQNRLSELEAANKDLTERKYKGDSTIRELKAKLSGVEEELQRTKQEVLSLRRENSTLDVECHEKEKHVNQLQTKVAVLEQEIKDKDQLVLRTKEAFDTIQEQKVVLEENGEKNQVQLGKLEATIKSLSAELLKANEIIKKLQGDLKTLMGKLKLKNTVTIQQEKLLAEKEEKLQKEQKELQDVGQSLRIKEQEVCKLQEQLEATVKKLEESKQLLKNNEKLITWLNKELNENQLVRKQDVLGPSTTPPAHSSSNTIRSGISPNLNVVDGRLTYPTCGIGYPVSSAFAFQNTFPHSISAKNTSHPGSGTKVQFNLQFTKPNASLGDVQSGATISMPCSTDKENGENVGLESKYLKKREDSIPLRGLSQNLFSNSDHQRDGTLGALHTSSKPTALPSASSAYFPGQLPNS [SASS6]” was tested, and the “solubility in G1/S (log2)” value (HeLa Kyoto [1]) was 0.537, the melting temperature (HeLa Kyoto [2]; cell cycle stage: G1/S) was 48.2 °C and the melting temperature (HeLa Kyoto [2]; cell cycle stage: mitosis) was 49.3 °C. The “solubility change mitosis (log2)” value (HeLa Kyoto [3]) was -0.0259, the thermal stability score (HeLa Kyoto [4]; [5]) was 0.985 and the thermal stability score (HeLa Kyoto [4]; cell cycle stage: mitosis) was 0.832.

For “MSRGPSSAVLPSALGSRKLGPRSLSCLSDLDGGVALEPRACRPPGSPGRAPPPTPAPSGCDPRLRPIILRRARSLPSSPERRQKAAGAPGAACRPGCSQKLRVRFADALGLELAQVKVFNAGDDPSVPLHVLSRLAINSDLCCSSQDLEFTLHCLVPDFPPPVEAADFGERLQRQLVCLERVTCSDLGISGTVRVCNVAFEKQVAVRYTFSGWRSTHEAVARWRGPAGPEGTEDVFTFGFPVPPFLLELGSRVHFAVRYQVAGAEYWDNNDHRDYSLTCRNHALHMPRGECEESWIHFI [PPP1R3D]”, the “solubility in G1/S (log2)” value (HeLa Kyoto [1]) was 0.0302, the melting temperature (HeLa Kyoto [2]; cell cycle stage: G1/S) was 51.7 °C and the melting temperature (HeLa Kyoto [2]; cell cycle stage: mitosis) was 50.8 °C. For the same sequence, the “solubility change mitosis (log2)” value (HeLa Kyoto [3]) was -0.164, the thermal stability score (HeLa Kyoto [4]; [5]) was -0.613 and the thermal stability score (HeLa Kyoto [4]; cell cycle stage: mitosis) was -0.713.
